Experimental data from PMC4357707 (Nucleic Acids Research, 2015).
Positions count from the first letter of the chain named.

Legend:
Assay in all cases: EMSA
[1] = biological target: T1, HEN1-KKKK68-71SAAS (Arabidopsis thaliana, UniProt Q9C5Q8 1-942, K68S;K69A;K70A;K71S)
T1 sequence: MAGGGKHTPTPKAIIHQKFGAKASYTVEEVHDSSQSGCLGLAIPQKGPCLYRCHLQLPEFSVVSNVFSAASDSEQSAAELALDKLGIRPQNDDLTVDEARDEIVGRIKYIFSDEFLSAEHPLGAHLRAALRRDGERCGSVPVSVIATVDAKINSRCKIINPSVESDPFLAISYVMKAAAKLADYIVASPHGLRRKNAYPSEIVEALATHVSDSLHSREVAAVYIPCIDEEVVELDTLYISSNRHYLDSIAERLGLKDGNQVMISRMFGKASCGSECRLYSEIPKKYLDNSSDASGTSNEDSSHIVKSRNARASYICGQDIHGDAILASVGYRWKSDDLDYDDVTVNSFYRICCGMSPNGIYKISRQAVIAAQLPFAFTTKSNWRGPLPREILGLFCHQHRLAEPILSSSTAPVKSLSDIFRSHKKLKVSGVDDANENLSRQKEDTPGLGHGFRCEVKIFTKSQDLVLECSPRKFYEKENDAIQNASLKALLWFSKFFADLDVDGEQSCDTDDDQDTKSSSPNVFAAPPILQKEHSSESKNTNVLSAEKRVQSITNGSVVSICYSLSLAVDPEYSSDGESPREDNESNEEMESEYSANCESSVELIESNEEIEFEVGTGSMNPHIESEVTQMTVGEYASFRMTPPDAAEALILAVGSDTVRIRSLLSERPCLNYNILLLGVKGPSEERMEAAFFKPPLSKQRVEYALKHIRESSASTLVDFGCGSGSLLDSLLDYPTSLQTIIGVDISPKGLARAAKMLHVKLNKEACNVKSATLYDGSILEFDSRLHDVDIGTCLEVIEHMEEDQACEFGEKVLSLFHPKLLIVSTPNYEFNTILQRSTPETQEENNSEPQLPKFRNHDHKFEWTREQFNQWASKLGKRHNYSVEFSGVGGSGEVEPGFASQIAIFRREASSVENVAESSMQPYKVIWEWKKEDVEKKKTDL

[2] = biological target: T2, HEN1-RHK389,397,477AAA (Arabidopsis thaliana, UniProt Q9C5Q8 1-942, R389A;H397A;K477A)
T2 sequence: T1 sequence with S68K, A69K, A70K, S71K, R389A, H397A, K477A

[3] = biological target: T3, HYL1 (Arabidopsis thaliana, UniProt O04492 1-419)
T3 sequence: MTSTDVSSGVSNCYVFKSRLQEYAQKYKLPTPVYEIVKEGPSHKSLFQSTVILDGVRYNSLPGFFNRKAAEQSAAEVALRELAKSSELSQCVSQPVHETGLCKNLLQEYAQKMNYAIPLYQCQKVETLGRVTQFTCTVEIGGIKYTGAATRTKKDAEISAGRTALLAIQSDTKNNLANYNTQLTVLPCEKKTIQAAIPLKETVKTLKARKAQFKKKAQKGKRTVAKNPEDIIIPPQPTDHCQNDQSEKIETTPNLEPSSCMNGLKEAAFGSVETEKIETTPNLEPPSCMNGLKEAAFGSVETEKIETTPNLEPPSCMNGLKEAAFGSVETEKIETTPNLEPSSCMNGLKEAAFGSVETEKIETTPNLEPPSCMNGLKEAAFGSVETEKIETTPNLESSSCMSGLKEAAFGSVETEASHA

B1: miR173/miR173* (dsRNA)
RNA 1: UUCGCUUGCAGAGAGAAAUCAC
RNA 2: GAUUCUCUGUGUAAGCGAAAG
- binding result [1]: no binding
- Kd [2]: 302 ± 29 nM
- binding result [3]: binds
